Ends that are not written are not given here.
Test: Pharmacokinetics of amylin in rabbits after intravenous versus intrapulmonary administration
Assay type: in vivo, New Zealand rabbits
Conditions: for Vd: average of six; for Ke: elimination rate constant; for K12: rate constant central to peripheral compartment; for K21: rate constant peripheral to central compartment
From the text: The table listed below discloses the average measured results
Referring to FIG. 2, the experimental results obtained were compared to the results calculated using formulae (I) through (VI). The calculated data is totally consistent with the experimental data of this EXAMPLE.

[1] = Intrapulmonary Administration, dose: 7.5 μg/kg
[2] = Intravenous Administration, dose: 5.0 μg/kg

## amylin (KCNTATCATQRLANFLVHSSNNFGAILSSTNVGSNTY; not fully specified (C-terminus, bridges); cysteine pairing not given here; UniProt P10997 34-70, looked up) [β-cell hypoglycemic medicament; natural, synthetic, semi-synthetic or recombinant amylin or amylin analogs]
[1]
  AUC (Area under the blood concentration time course curve): 16.9670 ng·min/mL
  F (Bioavalability), Percent of administered drug absorbed from the lung dose: 24.9%
  T1/2 (Half life of the drug in the body): 26.3819 min
  Vd: 63.0911 L
  Ke: 0.02627 min⁻¹
  K12: 0.03211 min⁻¹
  K21: 0.01774 min⁻¹
[2]
  AUC (Area under the blood concentration time course curve): 45.4016 ng·min/mL
  T1/2 (Half life of the drug in the body): 17.1771 min
  Vd: 9.5246 L
  Ke: 0.0403 min⁻¹
  K12: 0.0180 min⁻¹
  K21: 0.0075 min⁻¹

Source: patent publication US6596261B1, “Method of administering a medicinal aerosol formulation” (Aeropharm Technology Incorporated, priority 2000, dated 2003)
